Publication PMC3565990

Target: SHP-1 (UniProt P29351)
Experiment: anti-FLAG IP, anti-SHP-1 Western blot
Conditions: reference: wild-type CD72fl, NP-BSA stimulated; sites Y7

- binding against the reference: lost
Substance: human CD72fl (FLAG-tagged) (from UniProt P21854) CD72flYF (Y7F), NP-BSA stimulated
